{"source": "paper PMC6733935", "about": "“A convenient and efficient total solid-phase synthesis of DOTA-functionalized tumor-targeting peptides for PET imaging of cancer” (EJNMMI Research, 2019)", "key": {"[1]": {"target": "T1, BN/GRP receptor-positive MDA-MB-231 human breast cancer cells (Homo sapiens, UniProt P30550)", "T1 construct": "BN/GRP receptor-positive MDA-MB-231, MCF7, T47D human breast cancer, and PC3 human prostate cancer lines; host or cells: MDA-MB-231, MCF7, T47D (human breast cancer), PC3 (human prostate cancer); intact cells", "test": "Saturation binding assay on MDA-MB-231 cells", "conditions": "n = 3-5 experiments; for Bmax (apparent number of binding sites per cell): SD < 15%", "description": "(§1) The cell binding of ^68Ga-radiolabeled peptides into BN/GRP receptor-positive MDA-MB-231, MCF7, T47D human breast cancer, and PC3 human prostate cancer lines (American Type Culture Collection, Rockville, MD, USA) was performed according to the method described previously. In brief, ∼ 300,000 cells (in 300 μL in low-serum media) were incubated with various amounts of radiopeptides, ranging between 0.1 and 25 nM of peptide (prepared from the serial dilutions of HPLC-purified radiopeptides), in duplicate for 60 min at room temperature. The initial concentrations of ^68Ga-labeled peptides were determined according to a well-established HPLC technique with simultaneous detection by UV absorbance. As the amount of BN peptide in the reaction mixture was too small to be detected by UV absorption at 220 nm, the radioactive peptide chromatograms from the HPLC analysis were compared (with UV chromatograms) with those of known concentrations of the corresponding nonradioactive peptides for the mass determination. Incubation was terminated by dilution with cold saline (300 μL) and the cells were pelleted by centrifugation. The cell pellets was then rapidly washed with cold saline to remove any unbound peptide and centrifuged to collect supernatants. Radioactivity in the cell pellet and the washings was measured in a γ-counter. Non-specific binding was determined in the presence of ~ 200-fold molar excess of unlabeled BN peptide. Specific binding is calculated by subtracting the non-specifically bound radioactivity from that of the total binding. The dissociation constant (Kd) was calculated using a plot of cell bound activity versus the concentration of the radioligand using GraphPad Prism software (GraphPad Software Inc., San Diego, CA, USA)."}, "[2]": {"tested_on": "MDA-MB-231 tumors", "test": "in vivo", "assay_type": "in vivo, nude mice", "conditions": "for Radioactivity in Urine + bladder / Uptake in Blood / Uptake in Intestines (measured without their contents) / Uptake in Kidneys / Uptake in Liver / Uptake in Lungs / Uptake in Muscle / Uptake in Pancreas / Uptake in Spleen / Uptake in Stomach: female, nude, mouse, in vivo; for Uptake in Tumor: nude mice with MDA-MB-231 tumors, mean ± SD, n = 3-5", "description": "BN/GRP receptor-positive MDA-MB-231 and PC3 cell lines (American Type Culture Collection, Rockville, USA) were grown as monolayers at 37 °C in a humidified atmosphere containing RPMI-1640 culture media with 10% fetal bovine serum (FBS) in tissue culture flasks. Twenty-four hours prior to conducting the tumor implantation, the media was replaced with RPMI-1640/10% FBS. The cells were grown to 80-90% confluency and harvested by trypsinization. After centrifugation, about 50 million cells were suspended in 1 mL media for implantation into mice. To prepare cells for inoculation, MDA-MB-231 or PC3 cancer cells with media were centrifuged, the media decanted, and the cell pellet was mixed with phosphate-buffered saline (PBS) to reach a concentration of approximately 5 million cells per 100 μL PBS. Human MDA-MB-231 breast cancer xenografts female mouse models were used for in vivo tumor-targeting experiments. For the implantation of tumor xenografts, approximately five million MDA-MB-231 cells in suspension of 100 μL sterile PBS were injected subcutaneously into the left thigh of each mouse. Tumors were allowed to grow for 4-6 weeks by which tumors had reached weights of 200-300 mg. After sufficient growth of tumors, animals were injected with 20-30 μCi of the radiotracers and the animals were sacrificed at specified time points. The uptake of ^68Ga-radiolabeled peptides in the tumors and other major body organs was calculated by γ-counting as described above."}, "[3]": {"target": "T2, BN/GRP receptor-positive MCF7 human breast cancer cells (Homo sapiens, UniProt P30550)", "T2 construct": "BN/GRP receptor-positive MDA-MB-231, MCF7, T47D human breast cancer, and PC3 human prostate cancer lines; host or cells: MDA-MB-231, MCF7, T47D (human breast cancer), PC3 (human prostate cancer); intact cells", "test": "Saturation binding assay on MCF7 cells", "conditions": "n = 3-5 experiments; for Bmax (apparent number of binding sites per cell): SD < 15%", "description": "as §1"}, "[4]": {"assay_type": "physicochemical", "description": "For lipophilicity determination, each HPLC-purified radiopeptide (~ 20 μL, ∼ 25 μCi) was added into a glass tube containing an equal volume mixture of n-octanol and water (1 mL each). The samples were vigorously vortexed for 5 min and subsequently centrifuged (5000 rpm, 5 min) to yield two immiscible layers. Duplicate samples (100 μL) from each layer were carefully taken (to avoid cross-contamination between the layers) for radioactivity measurement using a γ-counter. Partition coefficient was determined by the function: partition coefficient = Log10 (radioactivity in octanol layer/radioactivity in aqueous layer)."}, "[5]": {"conditions": "~300,000 cells, 0.1-25 nM radiopeptide, 60 min, room temperature, mean ± SD"}}, "note": "Numbered stars: 1 amine (or outer) side, 2 acyl side, 3 side chain; on linkers, the order of the positions; unused ones are H or OH. Square brackets hold non-standard residues; d marks the D form. Peptide text beside a SMILES is read from it. * marks the point of attachment. DOTA = O=C(O)CN1CCN(CC(=O)O)CCN(CC(=O)*)CCN(CC(=O)O)CC1; Cha = N[C@@H](CC1CCCCC1)C(=O)O; X1 = O=C(CCC(=O)[*:2])CN[*:1]; 4Abz = Nc1ccc(C(=O)O)cc1; Nle = CCCC[C@H](N)C(=O)O"}
{"smiles": "CCCC[C@H](NC(=O)[C@H](Cc1c[nH]cn1)NC(=O)[C@H](CC1CCCCC1)NC(=O)[C@@H](NC(=O)[C@H](C)NC(=O)[C@H](Cc1c[nH]c2ccccc12)NC(=O)[C@H](CCC(N)=O)NC(=O)[C@H](CS)NC(=O)CNC(=O)CNC(=O)c1ccc(NC(=O)CN2CCN(CC(=O)O)CCN(CC(=O)O)CCN(CC(=O)O)CC2)cc1)C(C)C)C(=O)N[C@@H](CCSC)C(N)=O", "note": "[^68Ga-DOTA-Abz-BN Tris-, metal not drawn] ({DOTA-4Abz}-GGCQWAV[Cha]H[Nle]M-NH2)", "values": [{"measurement": "Bmax (apparent number of binding sites per cell)", "setting": "[1]", "result": "5.89 × 10^5 sites/cell"}, {"measurement": "Radioactivity in Urine + bladder", "setting": "[2]; 1 h", "result": "58.0 ± 6.25 % injected dose per tissue"}, {"measurement": "Uptake in Blood", "setting": "[2]; 1 h", "result": "0.93 ± 0.22", "unit": "% ID/g"}, {"measurement": "Uptake in Intestines (measured without their contents)", "setting": "[2]; 1 h", "result": "1.01 ± 0.17", "unit": "% ID/g"}, {"measurement": "Uptake in Kidneys", "setting": "[2]; 1 h", "result": "6.52 ± 0.60", "unit": "% ID/g"}, {"measurement": "Uptake in Liver", "setting": "[2]; 1 h", "result": "2.28 ± 0.31", "unit": "% ID/g"}, {"measurement": "Uptake in Lungs", "setting": "[2]; 1 h", "result": "1.82 ± 0.30", "unit": "% ID/g"}, {"measurement": "Uptake in Muscle", "setting": "[2]; 1 h", "result": "0.36 ± 0.07", "unit": "% ID/g"}, {"measurement": "Uptake in Pancreas", "setting": "[2]; 1 h", "result": "1.81 ± 0.22", "unit": "% ID/g"}, {"measurement": "Uptake in Spleen", "setting": "[2]; 1 h", "result": "0.18 ± 0.03", "unit": "% ID/g"}, {"measurement": "Uptake in Stomach", "setting": "[2]; 1 h", "result": "1.0 ± 0.20", "unit": "% ID/g"}, {"measurement": "Radioactivity in Urine + bladder", "setting": "[2]; 2 h", "result": "65.0 ± 9.13 % injected dose per tissue"}, {"measurement": "Uptake in Blood", "setting": "[2]; 2 h", "result": "0.64 ± 0.16", "unit": "% ID/g"}, {"measurement": "Uptake in Intestines (measured without their contents)", "setting": "[2]; 2 h", "result": "0.76 ± 0.12", "unit": "% ID/g"}, {"measurement": "Uptake in Kidneys", "setting": "[2]; 2 h", "result": "3.96 ± 0.48", "unit": "% ID/g"}, {"measurement": "Uptake in Liver", "setting": "[2]; 2 h", "result": "1.71 ± 0.20", "unit": "% ID/g"}, {"measurement": "Uptake in Lungs", "setting": "[2]; 2 h", "result": "1.26 ± 0.25", "unit": "% ID/g"}, {"measurement": "Uptake in Muscle", "setting": "[2]; 2 h", "result": "0.28 ± 0.04", "unit": "% ID/g"}, {"measurement": "Uptake in Pancreas", "setting": "[2]; 2 h", "result": "0.93 ± 0.15", "unit": "% ID/g"}, {"measurement": "Uptake in Spleen", "setting": "[2]; 2 h", "result": "0.09 ± 0.02", "unit": "% ID/g"}, {"measurement": "Uptake in Stomach", "setting": "[2]; 2 h", "result": "0.52 ± 0.13", "unit": "% ID/g"}, {"measurement": "Uptake in Tumor", "setting": "[2]; 1 h p.i.", "result": "2.15 ± 0.33", "unit": "% ID/g"}, {"measurement": "Uptake in Tumor", "setting": "[2]; 2 h p.i.", "result": "1.37 ± 0.25", "unit": "% ID/g"}, {"measurement": "Bmax (apparent number of binding sites per cell)", "setting": "[3]", "result": "4.86 × 10^5 sites/cell"}, {"measurement": "Log P (octanol/water)", "setting": "[4]", "result": "− 1.04 ± 0.10"}]}
{"smiles": "CCCC[C@H](NC(=O)[C@H](Cc1c[nH]cn1)NC(=O)[C@H](CC1CCCCC1)NC(=O)[C@@H](NC(=O)[C@H](C)NC(=O)[C@H](Cc1c[nH]c2ccccc12)NC(=O)[C@H](CCC(N)=O)NC(=O)[C@H](CS)NC(=O)CNC(=O)CNC(=O)CCC(=O)CNC(=O)CN1CCN(CC(=O)O)CCN(CC(=O)O)CCN(CC(=O)O)CC1)C(C)C)C(=O)N[C@@H](CCSC)C(N)=O", "note": "[^68Ga-DOTA-ALA-BN Tris-, metal not drawn] ({DOTA}-[X1]GGCQWAV[Cha]H[Nle]M-NH2)", "values": [{"measurement": "Bmax (apparent number of binding sites per cell)", "setting": "[1]", "result": "1.12 × 10^5 sites/cell"}, {"measurement": "Kd", "setting": "[1]; [5]", "result": "14.7 ± 2.24", "unit": "nM"}, {"measurement": "Radioactivity in Urine + bladder", "setting": "[2]; 1 h", "result": "54.0 ± 5.78 % injected dose per tissue"}, {"measurement": "Uptake in Blood", "setting": "[2]; 1 h", "result": "0.85 ± 0.15", "unit": "% ID/g"}, {"measurement": "Uptake in Intestines (measured without their contents)", "setting": "[2]; 1 h", "result": "1.05 ± 0.18", "unit": "% ID/g"}, {"measurement": "Uptake in Kidneys", "setting": "[2]; 1 h", "result": "5.12 ± 0.69", "unit": "% ID/g"}, {"measurement": "Uptake in Liver", "setting": "[2]; 1 h", "result": "2.31 ± 0.38", "unit": "% ID/g"}, {"measurement": "Uptake in Lungs", "setting": "[2]; 1 h", "result": "2.35 ± 0.33", "unit": "% ID/g"}, {"measurement": "Uptake in Muscle", "setting": "[2]; 1 h", "result": "0.39 ± 0.03", "unit": "% ID/g"}, {"measurement": "Uptake in Pancreas", "setting": "[2]; 1 h", "result": "1.19 ± 0.15", "unit": "% ID/g"}, {"measurement": "Uptake in Spleen", "setting": "[2]; 1 h", "result": "0.44 ± 0.06", "unit": "% ID/g"}, {"measurement": "Uptake in Stomach", "setting": "[2]; 1 h", "result": "0.83 ± 0.21", "unit": "% ID/g"}, {"measurement": "Radioactivity in Urine + bladder", "setting": "[2]; 2 h", "result": "61.0 ± 7.10 % injected dose per tissue"}, {"measurement": "Uptake in Blood", "setting": "[2]; 2 h", "result": "0.30 ± 0.04", "unit": "% ID/g"}, {"measurement": "Uptake in Intestines (measured without their contents)", "setting": "[2]; 2 h", "result": "0.73 ± 0.13", "unit": "% ID/g"}, {"measurement": "Uptake in Kidneys", "setting": "[2]; 2 h", "result": "3.56 ± 0.50", "unit": "% ID/g"}, {"measurement": "Uptake in Liver", "setting": "[2]; 2 h", "result": "1.50 ± 0.27", "unit": "% ID/g"}, {"measurement": "Uptake in Lungs", "setting": "[2]; 2 h", "result": "0.70 ± 0.16", "unit": "% ID/g"}, {"measurement": "Uptake in Muscle", "setting": "[2]; 2 h", "result": "0.23 ± 0.02", "unit": "% ID/g"}, {"measurement": "Uptake in Pancreas", "setting": "[2]; 2 h", "result": "0.71 ± 0.10", "unit": "% ID/g"}, {"measurement": "Uptake in Spleen", "setting": "[2]; 2 h", "result": "0.35 ± 0.03", "unit": "% ID/g"}, {"measurement": "Uptake in Stomach", "setting": "[2]; 2 h", "result": "0.37 ± 0.07", "unit": "% ID/g"}, {"measurement": "Uptake in Tumor", "setting": "[2]; 1 h p.i.", "result": "1.78 ± 0.40", "unit": "% ID/g"}, {"measurement": "Uptake in Tumor", "setting": "[2]; 2 h p.i.", "result": "1.25 ± 0.21", "unit": "% ID/g"}, {"measurement": "Bmax (apparent number of binding sites per cell)", "setting": "[3]", "result": "1.05 × 10^5 sites/cell"}, {"measurement": "Kd", "setting": "[3]; [5]", "result": "12.3 ± 1.94", "unit": "nM"}, {"measurement": "Log P (octanol/water)", "setting": "[4]", "result": "− 0.88 ± 0.07"}]}
